Reference: patent publication US20240325555A1 (LANOVA MEDICINES, published 2024)
Residue numbers refer to the chain shown, from its start.

B1: 124H4D11.p2.z5 (antibody, V domains shown)
VH: QVQLVQSGAEVVKPGASVKVSCKASGFNIKDYYMHWVRQAPGQGLEWIGWIDPENDDTEYDPKFQGRVTMTADTSTSTVYMELSSLRSEDTAVYYCAARYYAFDYWGQGTMVTVSS
VL: DVLMTQSPLSLPVTLGQPASISCRSSQSIVHSNANTYLEWYLQRPGQSPKLLIYKVSNRFSGVPDRFSGSGSGTEFTLKISRVEAEDLGVYYCFQGSQVPPTFGGGTKLEIK
B2: 124H4D11.p2.z13 (antibody, V domains shown)
VH: B1 VH with Q3P, V20L, R38K, V68A, V79A, M81L, A97N, M111T
VL: DVLMTQSPSSLSVSVGDRATISCRSSQSIVHSNANTYLEWYLQKPGKSPKLLIYKVSNRFSGVPDRFSGSGSGTEFTLTISSVQPEDFGVYYCFQGSQVPPTFGGGTRLEIK
B3: 124H4D11.p2.z2 (antibody, V domains shown)
VH: B1 VH
VL: B2 VL with V13A, A19V, S22T, G89A, G105Q
B4: 124H4D11.p2.z7 (antibody, V domains shown)
VH: B1 VH with Q3P, V68A, V79A, A97N, M111T
VL: B2 VL with V13A, A19V, S22T, G89A, G105Q
B5: 124H4D11.p2.z15 (antibody, V domains shown)
VH: B1 VH with Q3P, V20L, R38K, V68A, V79A, M81L, A97N, M111T
VL: B1 VL
B6: 124H4D11.p2.z1 (antibody, V domains shown)
VH: B1 VH
VL: B2 VL with L3Q, V13A, A19V, S22T, E75D, V83L, G89A, V90T, G105Q
B7: 124H4D11.p2.z3 (antibody, V domains shown)
VH: B1 VH
VL: B2 VL
B8: 124H4D11.p2.z14 (antibody, V domains shown)
VH: B1 VH with Q3P, V20L, R38K, V68A, V79A, M81L, A97N, M111T
VL: B1 VL with K50R, E75D, L88V, G105Q
B9: 124H4D11.p2.z12 (antibody, V domains shown)
VH: B1 VH with Q3P, V20L, R38K, V68A, V79A, M81L, A97N, M111T
VL: B2 VL with V13A, A19V, S22T, G89A, G105Q
B10: 5D6B10.Z5 (antibody, V domains shown)
VH: QVQLVESGGGVVQPGRSLRLSCTVSGFSLTTYGIHWVRQSPGKGLEWLGVIWTGGTTDYNAAFISRLTISKDNSKSTLYFQMNSLRAEDTAVYYCARGPSSYWGQGTLVTVSS
VL: EIVMTQSPATLSVSPGERATVSCKASQNVDTNVVWYQQKPGQSPRALIHSASYRYSGVPDRFSGSGSGTDFTLTISSLQSEDFAVYFCQQYNNYPWTFGQGTKVEIK
B11: 5D6B10.Z10 (antibody, V domains shown)
VH: QVQLQESGPGLVKPSGTLSLTCAVSGFSLTTYGIHWVRQSPGKGLEWLGVIWTGGTTDYNAAFISRLTISKDKSKNQVSLKLSSVTAADTAVYYCARGPSSYWGQGTLVTVSS
VL: B10 VL with V21L, H49Y, D60A, D70E
B12: 5D6B10.Z4 (antibody, V domains shown)
VH: B10 VH
VL: B10 VL with V21L, H49Y, D60A, D70E
B13: 5D6B10.Z6 (antibody, V domains shown)
VH: B10 VH
VL: B10 VL with E1D, A19V, L78V, Q100G, V104L
B14: 5D6B10.Z11 (antibody, V domains shown)
VH: B11 VH
VL: B10 VL
B15: 5D6B10.Z1 (antibody, V domains shown)
VH: B10 VH with T23A, S40A, G49A, L67F, F80L
VL: B10 VL with V21L, H49Y, D60A, D70E
B16: 5D6B10.Z3 (antibody, V domains shown)
VH: B10 VH with T23A, S40A, G49A, L67F, F80L
VL: B10 VL with E1D, A19V, L78V, Q100G, V104L
B17: 5D6B10.Z9 (antibody, V domains shown)
VH: B10 VH with E6Q, L78V, R86Q, V92I
VL: B10 VL with E1D, A19V, L78V, Q100G, V104L
B18: 5D6B10.Z13 (antibody, V domains shown)
VH: B11 VH with E6Q, A23T, S79F, L80F, L82M, V85L
VL: B10 VL with V21L, H49Y, D60A, D70E
B19: 5D6B10.Z8 (antibody, V domains shown)
VH: B10 VH with E6Q, L78V, R86Q, V92I
VL: B10 VL
B20: 5D6B10.Z12 (antibody, V domains shown)
VH: B11 VH
VL: B10 VL with E1D, A19V, L78V, Q100G, V104L
B21: 5D6B10.Z2 (antibody, V domains shown)
VH: B10 VH with T23A, S40A, G49A, L67F, F80L
VL: B10 VL

Legend:
human LIV-1 = target: T1, human LIV-1 (human, UniProt Q13433 29-755); test: FACS, HEK293/H_LIV-1 cells
T1 construct: whole, on cells; also called H-LIV1
T1 sequence (looked up): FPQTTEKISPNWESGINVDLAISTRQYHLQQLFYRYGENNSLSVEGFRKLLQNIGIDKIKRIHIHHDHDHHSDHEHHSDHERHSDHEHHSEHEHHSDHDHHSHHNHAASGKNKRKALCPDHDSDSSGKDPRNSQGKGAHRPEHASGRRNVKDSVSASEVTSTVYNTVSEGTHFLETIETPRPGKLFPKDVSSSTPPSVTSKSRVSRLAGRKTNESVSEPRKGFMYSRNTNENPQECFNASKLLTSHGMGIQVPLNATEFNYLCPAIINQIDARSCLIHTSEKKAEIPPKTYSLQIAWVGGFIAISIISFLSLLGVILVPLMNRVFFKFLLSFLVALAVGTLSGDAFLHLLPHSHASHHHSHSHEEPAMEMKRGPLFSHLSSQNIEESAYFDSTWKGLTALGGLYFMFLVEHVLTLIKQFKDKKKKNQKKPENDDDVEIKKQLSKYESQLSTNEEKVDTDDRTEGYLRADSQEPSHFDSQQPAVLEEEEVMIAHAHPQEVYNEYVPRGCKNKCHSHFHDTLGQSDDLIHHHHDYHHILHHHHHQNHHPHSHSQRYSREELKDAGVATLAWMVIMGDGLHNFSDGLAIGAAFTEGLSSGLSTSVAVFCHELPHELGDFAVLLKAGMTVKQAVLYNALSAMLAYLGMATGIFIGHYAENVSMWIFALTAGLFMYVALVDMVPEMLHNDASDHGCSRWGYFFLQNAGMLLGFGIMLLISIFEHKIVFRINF
Description: In this example, cell based binding of humanized antibodies (hu Abs) on human LIV-1-expressing cells were assessed using flow cytometry.
Cell based binding of hu-Abs on human LIV-1 expressing cells were assessed using flow cytometry. Briefly, the HEK293/H_LIV-1 cells were incubated with hu-Abs (from 100 nM, 6 folds dilution, 8 points). After incubation at 4° C. for 60 minutes, the cells were washed with FACS buffer twice, then stained with fluorescent conjugated secondary antibody at 4° C. for 30 minutes. After that the cells were washed twice and analyzed by flow cytometry.

cynomolgus LIV-1 = cynomolgus LIV-1 (cynomolgus, UniProt A0A2K5WH46 30-741); test: FACS, HEK293/Cyno_LIV-1 cells

| EC50 (human LIV-1) [nM] | Top (MFI) (human LIV-1) | EC50 (cynomolgus LIV-1) [nM] | Top (MFI) (cynomolgus LIV-1) | Binder |
| --- | --- | --- | --- | --- |
| 0.58 | 15600 | 0.25 | 8070 | B1 |
| 7.48 | 17000 | – | 9030 | B2 |
| – | 19400 | 0.2 | 8390 | B3 |
| 37.2 | 15800 | 1.48 | 7750 | B4 |
| – | 16800 | 5.37 | 6910 | B5 |
| 0.89 | 16800 | 0.29 | 8200 | B6 |
| 0.12 | 19400 | 0.04 | 8300 | B7 |
| – | 16800 | 0.5 | 7670 | B8 |
| – | 15800 | 3.8 | 7570 | B9 |
| 0.17 | 43400 | 1.72 | 12400 | B10 |
| 0.42 | 63800 | 0.47 | 25800 | B11 |
| 0.28 | 53000 | 0.2 | 19800 | B12 |
| 0.24 | 52700 | 0.16 | 16700 | B13 |
| 0.29 | 55300 | 11.6 | 18300 | B14 |
| 0.16 | 49800 | 0.13 | 19600 | B15 |
| 0.33 | 51200 | 0.23 | 17200 | B16 |
| 0.24 | 52600 | 0.23 | 16500 | B17 |
| 0.33 | 64300 | 0.5 | 26300 | B18 |
| 0.19 | 45700 | 4 | 12100 | B19 |
| 0.3 | 60300 | 0.46 | 24900 | B20 |
| 0.18 | 46700 | 4.56 | 14900 | B21 |
